# In PMC4837482, “The complex binding mode of the peptide hormone H2 relaxin to its receptor RXFP1” (Nature Communications, 2016):
# Positions count from the first letter of the chain named.
# Assays:
# Assay in all cases: cAMP activity assay (pCRE β-galactosidase reporter), transfected HEK293T cells
# Type in all cases: cell-based
# [1] = target: T1, RXFP1 F54A/Y58A (Homo sapiens, UniProt Q9HBX9, F76A/Y80A); conditions: construct F54A/Y58A, ±s.e.m.
# T1 construct: cells expressing full-length RXFP1 and mutants; expressed in transfected cells; host or cells: HEK293T
# T1 sequence (Q9HBX9 23-757 F76A/Y80A limits assumed): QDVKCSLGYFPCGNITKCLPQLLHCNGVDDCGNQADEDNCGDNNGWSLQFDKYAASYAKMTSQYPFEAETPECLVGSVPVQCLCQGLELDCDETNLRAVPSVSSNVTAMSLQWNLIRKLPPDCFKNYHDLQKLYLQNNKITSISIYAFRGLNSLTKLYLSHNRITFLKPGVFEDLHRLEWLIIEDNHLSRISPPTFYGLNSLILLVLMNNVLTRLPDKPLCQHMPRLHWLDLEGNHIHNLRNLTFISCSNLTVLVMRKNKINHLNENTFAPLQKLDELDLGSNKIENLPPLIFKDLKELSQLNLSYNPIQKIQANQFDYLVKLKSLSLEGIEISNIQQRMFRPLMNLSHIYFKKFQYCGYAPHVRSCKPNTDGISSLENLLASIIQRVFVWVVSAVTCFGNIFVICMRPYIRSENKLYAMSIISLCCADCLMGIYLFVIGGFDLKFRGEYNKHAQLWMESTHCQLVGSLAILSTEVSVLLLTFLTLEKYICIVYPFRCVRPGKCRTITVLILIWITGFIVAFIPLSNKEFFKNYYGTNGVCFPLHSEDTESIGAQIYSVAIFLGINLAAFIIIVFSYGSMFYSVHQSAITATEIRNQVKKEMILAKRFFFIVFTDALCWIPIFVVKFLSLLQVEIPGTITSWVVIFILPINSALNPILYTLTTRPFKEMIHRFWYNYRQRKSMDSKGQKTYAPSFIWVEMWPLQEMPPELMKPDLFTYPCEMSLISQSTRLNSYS
# Summary of the method: (§1)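 Relaxin-stimulated cells go through overnight storage at −80 °C, two 10-min lysis steps at pH 8.0 with shaking, and chlorophenol red-β-D-galactopyranoside development. Output at 570 nm is scaled against the 5 μM Forskolin maximum.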
# [2] = target: T2, RXFP1 S47L48-AA (Homo sapiens, UniProt Q9HBX9, L70A/S69A); conditions: construct S47L48-AA, ±s.e.m.
# T2 construct: expressed in transfected cells; host or cells: HEK293T
# T2 sequence (Q9HBX9 23-757 S69A/L70A limits assumed): T1 sequence (Q9HBX9 23-757 F76A/Y80A limits assumed) with S47A, L48A, A54F, A58Y
# Summary of the method: as §1
# [3] = target: T3, RXFP1 W46A (Homo sapiens, UniProt Q9HBX9, W68A); conditions: construct W46A, ±s.e.m.
# T3 construct: transiently transfected human embryonic kidney (HEK) 293T cells expressing full-length RXFP1 and mutants; expressed in transfected cells; host or cells: HEK293T
# T3 sequence (Q9HBX9 23-757 W68A limits assumed): T1 sequence (Q9HBX9 23-757 F76A/Y80A limits assumed) with W46A, A54F, A58Y
# Summary of the method: as §1
# [4] = percentage of maximum response to 5 μM Forskolin
substance,measurement,setting,value
H2 relaxin: two-chain 6-kDa peptide hormone structurally related to insulin; recombinant human gene-2 H2 relaxin provided by Corthera,H2 relaxin pEC50,[1]; cAMP reporter,"9.87±0.08 (5)***^,#,θ"
same,H2 relaxin Emax,[1]; [4],99.94±2.19 (5) %
same,H2 relaxin pEC50,[2]; cAMP reporter,11.07±0.17 (3)
same,H2 relaxin Emax,[2]; [4],120.9±10.9 (3) %
same,H2 relaxin pEC50,[3]; cAMP reporter,7.02±0.18 (3)
same,H2 relaxin Emax,[3]; [4],109.6±13.69 (3) %
